Legend:
[1] = molecular target: T1, Integrin α2β1 on human chondrosarcoma cells (K9, K105) (human, UniProt P17301 30-1181; P05556 21-798); experiment: adhesion of K9 cells to coated protein, 1 hour, N-acetylglucosaminidase read-out; receptor as attributed in paragraph 181
T1 construct: whole, on cells; The cells are not engineered; also called integrin α2β1 receptor; β1 integrin
Protocol: To test cell binding, the chondrosarcoma cells or bovine chondrocytes were suspended in PBS containing 0.1% BSA, 25 U/ml collagenase and added to the wells (50,000/well), in the absence or presence of various peptide pools or the synthetic peptides (200, 100, 50, 25, 12.5 μg/ml). Non-adherent cells were removed after 1 hour and adhesion was determined by measuring lysosomal N-acetylglucosaminidase (12). Adhesion and spreading was visualized by light microscopy. In the time studies, k105 cells were allowed to adhere for 30 minutes, unbound cells were removed and medium without serum supplemented with or without peptides (250 μg/ml), β1 integrin antibody (clone P4C10, Gibco BRL), EDTA (5 mM) was added. Cell morphology was visualized by light microscopy after 1, 3 and 20 hours.
48-well tissue culture dishes were coated with 5 μg/ml collagen type II, tissue extracted bovine chondroadherin, human chondroadherin expressed in EBNA cells and human chondroadherin expressed in E. coli and blocked for non-specific binding with BSA. The cells were allowed to adhere for 1 hour at 37° C. Nonadherent cells were removed by washing and adhesion was determined by analyzing lysosomal N-acetylglucosaminidase. Adhesion is expressed in number of cells, 50,000 cells/well were seeded.

[2] = molecular target: T1, Integrin α2β1 on human chondrosarcoma …; experiment: adhesion of k105 cells to coated peptide, light microscopy; receptor as attributed in paragraph 163 and paragraph 181

T1 sequence (P17301 30-1181, chain 1 of 2): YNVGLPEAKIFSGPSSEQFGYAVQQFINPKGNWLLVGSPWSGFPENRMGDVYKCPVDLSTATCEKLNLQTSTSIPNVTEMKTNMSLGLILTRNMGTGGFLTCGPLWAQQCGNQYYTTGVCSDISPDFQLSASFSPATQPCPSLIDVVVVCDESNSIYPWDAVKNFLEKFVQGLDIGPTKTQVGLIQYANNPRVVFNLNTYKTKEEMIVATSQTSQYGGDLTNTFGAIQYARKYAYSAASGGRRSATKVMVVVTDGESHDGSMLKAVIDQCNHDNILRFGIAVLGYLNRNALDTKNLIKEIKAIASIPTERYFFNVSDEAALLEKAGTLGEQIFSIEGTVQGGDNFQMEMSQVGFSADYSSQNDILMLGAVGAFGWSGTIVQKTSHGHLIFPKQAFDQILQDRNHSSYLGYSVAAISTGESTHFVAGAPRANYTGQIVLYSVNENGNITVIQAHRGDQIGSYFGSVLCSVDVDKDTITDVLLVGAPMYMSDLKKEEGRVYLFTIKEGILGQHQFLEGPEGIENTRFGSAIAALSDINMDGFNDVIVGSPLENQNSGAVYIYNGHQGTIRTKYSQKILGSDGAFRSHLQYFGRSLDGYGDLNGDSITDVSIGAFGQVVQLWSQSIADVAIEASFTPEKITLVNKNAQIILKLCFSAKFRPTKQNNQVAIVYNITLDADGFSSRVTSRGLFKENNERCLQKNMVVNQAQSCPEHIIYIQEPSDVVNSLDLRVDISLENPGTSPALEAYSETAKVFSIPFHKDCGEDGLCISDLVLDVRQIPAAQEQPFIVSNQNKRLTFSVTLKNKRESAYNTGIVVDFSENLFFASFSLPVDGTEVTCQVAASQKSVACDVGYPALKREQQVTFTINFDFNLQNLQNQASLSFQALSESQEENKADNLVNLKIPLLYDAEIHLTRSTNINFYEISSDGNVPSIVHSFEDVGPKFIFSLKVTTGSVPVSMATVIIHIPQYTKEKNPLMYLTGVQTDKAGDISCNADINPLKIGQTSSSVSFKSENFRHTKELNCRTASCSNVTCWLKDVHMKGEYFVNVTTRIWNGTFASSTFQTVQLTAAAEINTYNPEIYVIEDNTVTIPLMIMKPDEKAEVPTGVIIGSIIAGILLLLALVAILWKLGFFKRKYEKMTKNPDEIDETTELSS
T1 sequence (P05556 21-798, chain 2 of 2): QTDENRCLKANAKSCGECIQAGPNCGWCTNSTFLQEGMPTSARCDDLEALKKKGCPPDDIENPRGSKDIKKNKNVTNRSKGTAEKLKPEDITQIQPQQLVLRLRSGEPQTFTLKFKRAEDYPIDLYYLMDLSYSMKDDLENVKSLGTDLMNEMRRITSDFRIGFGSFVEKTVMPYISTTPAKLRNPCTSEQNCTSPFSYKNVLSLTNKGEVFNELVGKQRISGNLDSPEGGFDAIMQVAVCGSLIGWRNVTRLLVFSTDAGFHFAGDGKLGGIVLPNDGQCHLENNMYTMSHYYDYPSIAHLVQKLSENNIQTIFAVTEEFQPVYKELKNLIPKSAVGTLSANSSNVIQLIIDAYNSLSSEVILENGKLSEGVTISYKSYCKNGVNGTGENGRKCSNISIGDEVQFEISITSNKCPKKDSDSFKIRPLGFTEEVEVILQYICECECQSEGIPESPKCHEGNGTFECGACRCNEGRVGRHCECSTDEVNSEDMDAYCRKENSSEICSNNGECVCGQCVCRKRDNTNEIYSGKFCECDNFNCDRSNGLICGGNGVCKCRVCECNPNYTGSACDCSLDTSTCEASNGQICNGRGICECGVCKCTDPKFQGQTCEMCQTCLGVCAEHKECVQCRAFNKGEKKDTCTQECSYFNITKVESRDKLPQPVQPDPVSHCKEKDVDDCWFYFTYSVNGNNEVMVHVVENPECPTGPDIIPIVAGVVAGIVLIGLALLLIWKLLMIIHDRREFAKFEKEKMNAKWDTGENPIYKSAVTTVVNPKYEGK

binding result [1]	binding result [2]	Binder
binds		Tissue extracted bovine chondroadherin (ligand, UniProt Q27972 25-361, looked up) CPQNCHCHSDLQHVICDKVGLQKIPKVSEKTKLLNLQRNNFPVLATNSFRAMPNLVSLHLQHCQIREVAAGAFRGLKQLIYLYLSHNDIRVLRAGAFDDLTELTYLYLDHNKVTELPRGLLSPLVNLFILQLNNNKIRELRSGAFQGAKDLRWLYLSENSLSSLQPGALDDVENLAKFYLDRNQLSSYPSAALSKLRVVEELKLSHNPLKSIPDNAFQSFGRYLETLWLDNTNLEKFSDGAFLGVTTLKHVHLENNRLHQLPSNFPFDSLETLTLTNNPWKCTCQLRGLRRWLEAKTSRPDATCASPAKFRGQHIRDTDAFRGCKFPTKRSKKAGRH
	binds	CQLRGLRRWLEAK (also called 12-mer peptide) [Synthetic peptide CQLRGLRRWLEAK (12-mer chondroadherin peptide plus an N-terminal cysteine)]

— patent publication US20090291879A1 (published 2009)
